The values that follow come from patent US20260167721A1 (ABLEXIS, published 2026).

As usually defined, the Kd is the free concentration of one partner at which half of the binding sites on the other are occupied at equilibrium, for simple one-to-one binding. In general, koff refers to a measure of how fast the partners let go of each other. A word on the kon: it is the rate constant with which the complex forms.

The target of test [1] is T1, CD3 on Jurkat wild-type cells (UniProt P07766 23-207; P04234 22-171; P09693 23-182).
T1 construct: whole, on cells; also called Jurkat WT
T1 sequence (P07766 23-207, chain 1 of 3): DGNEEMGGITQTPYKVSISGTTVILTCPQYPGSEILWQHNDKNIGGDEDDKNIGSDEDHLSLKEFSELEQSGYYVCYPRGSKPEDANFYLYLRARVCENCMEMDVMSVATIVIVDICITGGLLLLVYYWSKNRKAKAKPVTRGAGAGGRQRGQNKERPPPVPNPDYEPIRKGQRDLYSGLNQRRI
T1 sequence (P04234 22-171, chain 2 of 3): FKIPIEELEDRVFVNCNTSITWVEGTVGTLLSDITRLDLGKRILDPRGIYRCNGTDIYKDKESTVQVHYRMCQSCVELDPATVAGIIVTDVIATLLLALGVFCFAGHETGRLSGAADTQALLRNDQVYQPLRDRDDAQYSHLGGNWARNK
T1 sequence (P09693 23-182, chain 3 of 3): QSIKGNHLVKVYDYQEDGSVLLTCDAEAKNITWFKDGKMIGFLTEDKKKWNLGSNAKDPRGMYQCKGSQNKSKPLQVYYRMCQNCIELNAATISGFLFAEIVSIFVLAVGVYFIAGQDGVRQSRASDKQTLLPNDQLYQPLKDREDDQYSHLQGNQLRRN
Briefly: flow cytometry on Jurkat WT cells, antibody at 10 ug/ml.

In test [2] the target is T1, CD3 on Jurkat wild-type cells. Briefly: flow cytometry on Jurkat WT cells, antibody at 1 ug/ml. For orientation: A flow cytometer gives signals particle by particle.
In test [3] the target is T2, CD33 on KILR-HL60 cells (UniProt P20138 18-364, limits assumed).
T2 construct: whole, on cells; Target of the gemtuzumab arm; also called CD33 expressing cells
T2 sequence (P20138 18-364 limits assumed): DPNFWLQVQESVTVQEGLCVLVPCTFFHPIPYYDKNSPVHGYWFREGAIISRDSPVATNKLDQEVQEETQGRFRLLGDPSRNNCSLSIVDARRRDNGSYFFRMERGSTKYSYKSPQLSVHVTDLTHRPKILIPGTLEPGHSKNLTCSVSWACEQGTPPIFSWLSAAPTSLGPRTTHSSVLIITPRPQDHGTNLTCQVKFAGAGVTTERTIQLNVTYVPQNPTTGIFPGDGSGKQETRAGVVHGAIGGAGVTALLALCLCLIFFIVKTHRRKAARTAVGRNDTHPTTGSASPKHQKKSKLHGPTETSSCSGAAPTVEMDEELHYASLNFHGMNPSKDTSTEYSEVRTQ
Briefly: flow cytometry on KILR-HL60 (CD33 expressing) cells, antibody at 10 ug/ml.

The target in test [4] is T2, CD33 on KILR-HL60 cells. The experiment in a line: flow cytometry on KILR-HL60 (CD33 expressing) cells, antibody at 1 ug/ml.
In test [5] the target is T3, recombinant human CD3 epsilon/delta heterodimer (human, UniProt P07766 23-126; P04234 22-105).
T3 construct: Recombinant protein in solution (200-50 nM) in the Octet assay; also called hCD3 E/D; human CD3E/D
T3 sequence (P07766 23-126, stated change not applied, chain 1 of 2): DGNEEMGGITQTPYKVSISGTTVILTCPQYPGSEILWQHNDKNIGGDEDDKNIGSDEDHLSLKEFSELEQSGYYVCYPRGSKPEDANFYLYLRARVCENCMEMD
T3 sequence (P04234 22-105, stated change not applied, chain 2 of 2): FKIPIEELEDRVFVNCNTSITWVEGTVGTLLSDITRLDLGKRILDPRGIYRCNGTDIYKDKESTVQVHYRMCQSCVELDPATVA
Briefly: Octet BLI, mAb on FAB2G sensor, hCD3 E/D 200-50 nM; R^2 0.97. For orientation: Biolayer interferometry detects binding as a change in optical thickness at a sensor tip.
Method: (§1) Samples were evaluated by flow cytometry analysis against Jurkat and human Pan-T cells (FIG. 1B) as well as by Octet against recombinant human CD3 proteins to evaluate apparent affinities and binding off-rates (Table 6, infra).

For test [6], the target named is T4, recombinant human CD3 epsilon/gamma heterodimer (human, UniProt P07766 23-126; P09693 23-116).
T4 construct: Recombinant protein in solution (200-50 nM) in the Octet assay; also called hCD3 E/G
T4 sequence (P07766 23-126, chain 1 of 2): as the sequence (P07766 23-126, stated change not applied, chain 1 of 2) above
T4 sequence (P09693 23-116, chain 2 of 2): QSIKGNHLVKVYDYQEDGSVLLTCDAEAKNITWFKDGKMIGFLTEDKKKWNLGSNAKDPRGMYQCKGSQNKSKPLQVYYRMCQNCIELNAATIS
The experiment in a line: Octet BLI, mAb on FAB2G sensor, hCD3 E/G 200-50 nM; R^2 0.98.
Method: as §1

For test [7], the target named is T3, recombinant human CD3 epsilon/delta …. Briefly: Octet BLI, mAb on FAB2G sensor, hCD3 E/D 200-50 nM; R^2 1.00.
For test [8], the target named is T4, recombinant human CD3 epsilon/gamma …. The experiment in a line: Octet BLI, mAb on FAB2G sensor, hCD3 E/G 200-50 nM; R^2 1.00.
Method: as §1
In test [9] the target is T3, recombinant human CD3 epsilon/delta …. Briefly: Octet BLI, mAb on FAB2G sensor, hCD3 E/D 200-50 nM; R^2 0.99.
Test [10] concerns the target T4, recombinant human CD3 epsilon/gamma …. The experiment in a line: Octet BLI, mAb on FAB2G sensor, hCD3 E/G 200-50 nM; R^2 0.94.
Method: as §1

B1: CD3 × CD33-BspAb36 (bispecific antibody)
scFv-Fc: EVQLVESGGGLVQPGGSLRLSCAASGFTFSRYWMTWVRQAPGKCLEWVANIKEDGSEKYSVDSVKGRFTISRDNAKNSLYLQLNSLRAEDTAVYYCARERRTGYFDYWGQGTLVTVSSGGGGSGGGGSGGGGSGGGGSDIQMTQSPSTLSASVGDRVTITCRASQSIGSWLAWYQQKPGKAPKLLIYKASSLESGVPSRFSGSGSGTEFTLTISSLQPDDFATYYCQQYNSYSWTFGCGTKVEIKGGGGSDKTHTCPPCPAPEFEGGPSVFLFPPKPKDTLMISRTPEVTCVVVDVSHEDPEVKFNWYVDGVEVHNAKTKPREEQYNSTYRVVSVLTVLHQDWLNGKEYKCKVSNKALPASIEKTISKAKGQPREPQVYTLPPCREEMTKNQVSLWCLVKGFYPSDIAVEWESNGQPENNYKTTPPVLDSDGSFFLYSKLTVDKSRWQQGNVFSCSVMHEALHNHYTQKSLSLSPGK
heavy: EVQLVQSGAEVKKPGSSVKVSCKASGYTITDSNIHWVRQAPGQSLEWIGYIYPYNGGTDYNQKFKNRATLTVDNPTNTAYMELSSLRSEDTAFYYCVNGNPWLAYWGQGTLVTVSSASTKGPSVFPLAPSSKSTSGGTAALGCLVKDYFPEPVTVSWNSGALTSGVHTFPAVLQSSGLYSLSSVVTVPSSSLGTQTYICNVNHKPSNTKVDKRVEPKSCDKTHTCPPCPAPEFEGGPSVFLFPPKPKDTLMISRTPEVTCVVVDVSHEDPEVKFNWYVDGVEVHNAKTKPREEQYNSTYRVVSVLTVLHQDWLNGKEYKCKVSNKALPASIEKTISKAKGQPREPQVCTLPPSREEMTKNQVSLSCAVKGFYPSDIAVEWESNGQPENNYKTTPPVLDSDGSFFLVSKLTVDKSRWQQGNVFSCSVMHEALHNRFTQKSLSLSPGK
light: DIQLTQSPSTLSASVGDRVTITCRASESLDNYGIRFLTWFQQKPGKAPKLLMYAASNQGSGVPSRFSGSGSGTEFTLTISSLQPDDFATYYCQQTKEVPWSFGQGTKVEVKRTVAAPSVFIFPPSDEQLKSGTASVVCLLNNFYPREAKVQWKVDNALQSGNSQESVTEQDSKDSTYSLSSTLTLSKADYEKHKVYACEVTHQGLSSPVTKSFNRGEC
B1: the flow cytometry signal is 26100 in [1], 12500 in test [2], 746000 with CD33 on KILR-HL60 cells [3] and 569000 with CD33 on KILR-HL60 cells [4].

B2: ABL-CD3-38 (antibody, V domains shown)
VH: QGQLQQWGAGLLKPSETLSLTCAVYGGSFSGYYWSWIRLPPGKGLEWIGEINHSGNTNYNPSLKSRVTISVDTSKNQFSLQLSSVTAADTAVYYCAKEVEIWGYFDYWGQGTLVTVSS
VL: QSVLTQPPSVSGAPGQRVTISCTGSSSNIGAGYDVHWYQQLPGTAPKLLIYGNSNRPSGVPDRFSGSKSGTSASLAITGLQAEDETDYNCQSYDSSLSGYVFGTGTKVTVL
notes: Chimeric hybridoma mAb: human V, CH1, upper hinge; mouse middle hinge, CH2, CH3
B2: in test [5], the Kd came to 0.00141 µM, the Response turned out to be 0.73, the koff stood at 0.00035 s⁻¹ and the kon is 248000 M⁻¹ s⁻¹. Besides, in test [6], the Kd came out at 0.00136 µM, the Response is 0.73, the koff is 0.000331 s⁻¹ and the kon was 243000 M⁻¹ s⁻¹.

B3: ABL-CD3-6 (antibody, V domains shown)
VH: EVQLVDSGGGLVKPGGSLRLSCAASGFTFSSYSMNWVRQAPGKGLEWVSSISSRGSYRNYADSVKGRFTISRDNAKNSLYLQMNSLRAEDTAVYYCARDRRELLLDCWGQGTLVTVSS
VL: SYELTQPPSVSVSPGQTARITCSGDALPKKYAYWYQQKSGQAPVLVIYEDSKRPSGIPERFSGSSSGTMATLTISGAQVEDEADYYCYSTDSSGNHSWVFGGGTKLTVL
notes: as for B2
In the case of B3, in test [7], the Kd was found to be 0.0697 µM, the Response came out at 0.3, the koff was found to be 0.0333 s⁻¹ and the kon was determined as 477000 M⁻¹ s⁻¹. Besides, in [8], the Kd was 0.138 µM, the Response came out at 0.17, the koff came out at 0.0779 s⁻¹ and the association rate constant (kon) is 566000 M⁻¹ s⁻¹.

B4: ABL-CD3-25 (antibody, V domains shown)
VH: EVHLVESGGGLVKPGGSLRLSCAASGFTFSSYSMNWVRQAPGKGLEWVSSISSSSTYIYYADSVKGRFTISRDNAKNSLYLQMNSLRAEDTAVYYCAREPRTLGMDYWGQGILVTVSS
VL: NFMLTQPHSVSESPGKTVTISCTRSSGSIASNYVQWYQQRPGSSPTTVIYEDNHRPSGVPDRFSGSIDSSSNSASLTISGLKTEDEADYFCQSFDSSNRVFGGGTKLTVL
notes: as for B2
B4: in test [9], the equilibrium dissociation constant (Kd) was found to be 0.00856 µM, the Response stood at 1.32, the off-rate constant (koff) came to 0.000933 s⁻¹ and the kon was 109000 M⁻¹ s⁻¹. In addition, in [8], the Kd stood at 0.0117 µM, the Response came to 1.27, the koff is 0.00113 s⁻¹ and the association rate constant (kon) turned out to be 96600 M⁻¹ s⁻¹.

B5: ABL-CD3-58 (antibody, V domains shown)
VH: EVQLVESGGGLVKPGGSLRLSCVVSGFTFSNYNMNWVRQAPGKGLEWVSSSSRSSYIYYADSVKGRFTISRDNAKNSLYLQMNSLRAEDTAIYYCAREKWELLFFDYWGQGTLVTVSS
VL: NFMLTQPHSVSESPGKTVTISCTRSSGSIASNFVQWYQQRPGSSPTTVIYEDNQRPSGVPDRFSGSIDSSSNSASLTISGLKTEDEADYYCQSFDSSNRVFGGGTKLTVL
notes: as for B2
In the case of B5, in test [7], the Kd turned out to be 0.0441 µM, the Response was 0.57, the koff stood at 0.00265 s⁻¹ and the kon came to 60100 M⁻¹ s⁻¹. For the same molecule, in test [10], the Kd turned out to be 0.0452 µM, the Response is 0.28, the koff came to 0.00705 s⁻¹ and the on-rate constant (kon) turned out to be 156000 M⁻¹ s⁻¹.

B6: ABL-CD3-14 (antibody, V domains shown)
VH: EVQLVESGGGLVKPGGSLRLSCAASGFTCSSYSMTWVRQAPGKGLEWVSSISRRSSYIYYADSVKGRFTISRDNAKNSLYLQLNSLRAEDTAVYYCARERWELLYFDYWGQGTLVTVSS
VL: NFMLTQPHSVSESPGKTVTISCTRSSGSIASNYVQWYQQRPGSSPTTVIYEDNQRPSGVPDRFSGSIDSSSNSASLTISGLKTEDEADYYCQSYDSSNRVFGGGTKLTVL
notes: as for B2
For B6, in test [5], the dissociation constant Kd amounted to 0.0128 µM, the Response stood at 0.17, the off-rate constant (koff) came out at 0.00152 s⁻¹ and the kon stood at 119000 M⁻¹ s⁻¹. Besides, in [10], the dissociation constant Kd is 0.00966 µM, the Response stood at 0.08, the off-rate constant (koff) was 0.00287 s⁻¹ and the on-rate constant (kon) amounted to 298000 M⁻¹ s⁻¹.

B7: ABL-CD3-15 (antibody, V domains shown)
VH: EVQLVESGGGLVKPGGSLRLSCAASGFNCSSYSMNWVRQAPGKGLEWVSSISRSSNYIYYADSVKGRFSISRDDAKNSLYLQMNSLRAEDTAVYYCARERWIQLYSDYWGQGILVTVSS
VL: NFMLTQPHSVSESPGKTVTISCTRSSGSIASNYVQWYQQRPGSSPTTVIYEDNQRPSGVPDRFSGSIDSSSNSASLTISGLKTEDEADYYCQSYDSSNRVFGGGTKLTVL
notes: as for B2
With B7, in [9], the Kd worked out at 0.00162 µM, the Response is 0.93, the koff was 0.000276 s⁻¹ and the kon was determined as 171000 M⁻¹ s⁻¹. Further, in [8], the Kd is 0.00654 µM, the Response was determined as 0.83, the off-rate constant (koff) turned out to be 0.00113 s⁻¹ and the on-rate constant (kon) worked out at 173000 M⁻¹ s⁻¹.

B8: ABL-CD3-19 (antibody, V domains shown)
VH: EVQLVESGGGLVKPGGSLRLSCAASGFTLSSYSMNWVRQAPGKGLEWVSSISRSSSYIYYADSVKGRFTISRDNAKNSLYLQMNSLRAEDTAVYYCARERWELLYFDYWGQGTLVTVSS
VL: NFMLTQPHSVSESPGKTVTISCTRSSGSIASNYVQWYQQRPGSSPTTVIYEDNQRPSGVPDRFSGSIDSSSNSASLTISGLKTEDEADYYCQSFDNSNRVFGGGTKLTVL
notes: as for B2
Take B8: in test [7], the Kd worked out at 0.0233 µM, the Response came out at 0.6, the koff turned out to be 0.00191 s⁻¹ and the association rate constant (kon) turned out to be 81700 M⁻¹ s⁻¹. In addition, in test [8], the Kd was 0.0629 µM, the Response was 0.4, the off-rate (koff) turned out to be 0.00665 s⁻¹ and the kon stood at 106000 M⁻¹ s⁻¹.

B9: ABL-CD3-1 (antibody, V domains shown)
VH: EVQLVESGGGLVKPGGSLRLSCAASGFTLSSYSMNWVRQAPGKGLEWVSSISRSGSYIYYADSVKGRFTISRDNAKNSLYLQMNSLRAEDTAVYYCAREKWELLYFDYWGQGTLVTVSS
VL: NFMLTQPHSVSESPGKTVTISCTRSSGSIASNYVQWYQQRPGSSPTTVIYEDNQRPSGVPDRFSGSIDSSSNSASLTISGLKTEDEADYYCQSYDSSNRVFGGGTKLTVL
notes: as for B2
As for B9, in [7], the Kd stood at 0.108 µM, the Response was determined as 0.31, the koff came to 0.0157 s⁻¹ and the on-rate (kon) stood at 145000 M⁻¹ s⁻¹. In test [10], the Kd was determined as 1.21 µM, the Response is 0.07, the off-rate (koff) came to 0.171 s⁻¹ and the on-rate (kon) was found to be 142000 M⁻¹ s⁻¹.
